US20150141617A1, “PRODUCTION AND PURIFICATION OF ACTIVE EUKARYOTIC FORMYLGLYCINEGENERATING ENZYME (FGE) VARIANTS” (Universität Bielefeld, priority 2013, published 2015)

Assays:
[1] = biological target: furin (Homo sapiens, UniProt P09958); assay: FGE processing in CHO-FD11 cells co-expressing furin; format: cell-based; parameters: expressed in transfected cells; host or cells: CHO-FD11 / CHO-FD11 Tet-On (furin-deficient CHO) cells, transient co-transfection with FGE
Excerpt: The resulting constructs were verified by full-length sequencing of the coding region to exclude any PCR prone errors. Plasmids for expression of the PCs encoding human furin (Gene ID 5045), human PACE4 (=PCSK6, Gene ID 5046), murine […] (=Pcsk5, Gene ID 18552) and rat PC7 (=Pcsk7, Gene ID 29606) were kindly provided by Abdel-Majid Khatib (18). Note that the PC cDNAs were encoded as pIRES constructs coding also for enhanced green fluorescence protein (EGFP) such that EGFP expression levels serve as a measure of the expression levels of PCs.
3 μg of pSB-FGE-RGS-His6 vector was used for single transfections of HT1080, HeLa, HEK 293, BHK and CHO cells. Conditioned medium was collected after 24 h and centrifuged (500×g, 5 min) Cells were washed once with PBS, treated with trypsin (Lonza) and pelleted by 250×g to remove the medium. Cell pellets were resuspended in PBS (pH 7.4) containing protease inhibitor (PI) cocktail (Sigma) and lysed by sonication 3×10 s on ice. […]
In mammals, the proproteinconvertase family comprises nine enzymes that differ in their substrate specificity and tissue-specific expression and/or subcellular localization (17). […] Indeed, rFurin readily converted almost 90% of endogenous fl-FGE from untransfected HT1080 cells to the truncated form (FIG. 12E). […]

[2] = test system: cysteine-containing substrate peptide; assay: In vitro FGE activity assay with conditioned media from CHO-FD11 cells; format: biochemical; details: 5 mM GSH vs 2 mM DTT, pH 9.3, conditioned media
Protocol: FGE activity was assayed using conditioned media that contained either secreted fl-FGE (obtained from CHO-FD FGE-His6 cells) or Δ72-FGE (obtained from CHO-FD Tet-On cells after transient co-transfection with pBI-FGE-HA and pIRES-Furin constructs). After expression for 48 h at 1% or 2.5% FCS containing DMEM, the medium was collected and centrifuged at 500×g for 5 min. The supernatant was analyzed by SDS-PAGE and western blotting and aliquots were directly used for activity testing.
The activity assay was performed in triplicates with three sets of conditioned media at pH 9.3 under standard conditions as described earlier (4) with some modifications; no BSA was added to the reaction mixture and 2 mM DTT or 5 mM GSH were used as reducing agents.
The inventors have recently shown that the N-terminal part of FGE (residues 34-68) is essential to activate sulfatases in vivo (12). By contrast, the N-terminal extension was not required for in vitro FGly-generating activity of purified secreted Δ72-FGE. […] To assess the physiological consequence of the N-terminal truncation by furin on the function of FGE, the inventors analyzed the FGly-generating activity of the processed and the unprocessed forms of secreted FGE in the presence of glutathione (GSH), a physiological reductant, or DTT serving as a control. […]

furin, sequence (P09958 108-794): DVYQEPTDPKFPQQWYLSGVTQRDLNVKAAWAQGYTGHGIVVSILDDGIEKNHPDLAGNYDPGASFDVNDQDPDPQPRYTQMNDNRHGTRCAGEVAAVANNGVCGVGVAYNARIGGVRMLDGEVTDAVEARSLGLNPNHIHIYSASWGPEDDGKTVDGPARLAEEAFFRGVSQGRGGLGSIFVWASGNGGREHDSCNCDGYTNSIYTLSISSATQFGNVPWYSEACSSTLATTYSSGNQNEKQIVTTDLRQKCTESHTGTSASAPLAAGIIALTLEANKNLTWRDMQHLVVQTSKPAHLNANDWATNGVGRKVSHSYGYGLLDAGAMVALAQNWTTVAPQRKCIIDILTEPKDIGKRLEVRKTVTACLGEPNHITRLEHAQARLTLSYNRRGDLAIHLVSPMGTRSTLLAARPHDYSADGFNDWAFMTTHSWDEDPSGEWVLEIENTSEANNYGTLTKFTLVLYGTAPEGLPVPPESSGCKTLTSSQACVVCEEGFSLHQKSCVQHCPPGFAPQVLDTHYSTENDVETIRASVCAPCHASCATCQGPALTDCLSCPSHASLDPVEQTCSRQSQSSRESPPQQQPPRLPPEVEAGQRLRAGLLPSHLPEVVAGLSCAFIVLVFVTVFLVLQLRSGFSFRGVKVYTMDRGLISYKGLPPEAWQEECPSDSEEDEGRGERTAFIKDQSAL

- Δ72-FGE in secretions ([1]; coexpression of furin, CHO-FD11 Tet-On): ~100%
B1: FGE: human wild type full length formylglycine generating enzyme with RYSR furin cleavage motif, SEQ ID NO:2 (protein)
chain: ADEFSQEAGTGAGAGSLAGSCGCGTPQRPGAHGSSAAAHRYSREANAPGPVPGERQLAHSKMVPIPAGVFTMGTDDPQIKQDGEAPARRVTIDAFYMDAYEVSNTEFEKFVNSTGYLTEAEKFGDSFVFEGMLSEQVKTNIQQAVAAAPWWLPVKGANWRHPEGPDSTILHRPDHPVLHVSWNDAVAYCTWAGKRLPTEAEWEYSCRGGLHNRLFPWGNKLQPKGQHYANIWQGEFPVTNTGEDGFQGTAPVDAFPPNGYGLYNIVGNAWEWTSDWWTVHHSVEETLNPKGPPSGKDRVKKGGSYMCHRSYCYRYRCAARSQNTPDSSASNLGFRCAADRLPTMDSGRGSHHHHHHH
modifications: cloned matured acitve full length FGE with 6x His tag on C-terminus
- form of secreted FGE ([1]; furin replenished by exogenous expression): all secreted FGE was in the truncated form
- FGly-generating activity (% substrate turnover) in the presence of GSH normalized to that of DTT (100%) [2]: as active with GSH as with DTT
